The values below come from publication PMC7534798.

The chains are these.
T1: SPRTN-EQ (human, UniProt Q9H040 1-489, E112Q)
T1 sequence: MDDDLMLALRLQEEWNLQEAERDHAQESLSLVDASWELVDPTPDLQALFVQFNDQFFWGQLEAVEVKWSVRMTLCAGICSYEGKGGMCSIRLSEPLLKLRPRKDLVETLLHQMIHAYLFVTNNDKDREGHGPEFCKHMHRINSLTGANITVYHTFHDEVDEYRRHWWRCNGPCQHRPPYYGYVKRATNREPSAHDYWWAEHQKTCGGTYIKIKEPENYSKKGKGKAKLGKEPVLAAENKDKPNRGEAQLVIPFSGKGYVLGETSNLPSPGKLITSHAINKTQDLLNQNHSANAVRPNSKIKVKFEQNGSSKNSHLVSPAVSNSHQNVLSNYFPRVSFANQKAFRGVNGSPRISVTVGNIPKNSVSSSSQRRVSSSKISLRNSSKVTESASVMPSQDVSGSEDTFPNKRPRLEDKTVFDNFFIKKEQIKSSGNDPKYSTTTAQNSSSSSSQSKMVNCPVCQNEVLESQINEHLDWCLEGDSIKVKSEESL

T2: SPRTN ZBD (human, UniProt Q9H040 151-215)
T2 sequence: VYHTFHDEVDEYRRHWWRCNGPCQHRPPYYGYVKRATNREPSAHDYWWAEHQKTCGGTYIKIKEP

T3: SPRTN ZBD-BR (human, UniProt Q9H040 151-245)
T3 sequence: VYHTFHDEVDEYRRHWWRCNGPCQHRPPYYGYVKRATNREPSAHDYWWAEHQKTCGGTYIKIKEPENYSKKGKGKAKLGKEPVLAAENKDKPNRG

B1: internal DPC dsDNA (X15) (dsDNA)
DNA 1: ACCAGTGCCTTGCTTGGACATCTTTGCCCA
DNA 2: TGGGCAAAGATGTCCAAGCAAGGCACTGGT
modifications: T15 is SH-C9-dT crosslinked to protein G; 3' phosphate on strand 1
B2: dsDNA DPC (C3A11XA12C3 + 30-mer) (dsDNA)
DNA 1: CCCAAAAAAAAAAATAAAAAAAAAAAACCC
DNA 2: GGGTTTTTTTTTTTTATTTTTTTTTTTGGG
modifications: T15 is SH-C9-dT crosslinked to protein G; 3' phosphate on strand 1
B3: ss/dsDNA junction DPC (C3A11XA12C3 + 15-mer) (mixed)
DNA 1: B2 DNA 1
DNA 2: GGGTTTTTTTTTTTT
modifications: T15 is SH-C9-dT crosslinked to protein G; 3' phosphate on strand 1

The first data set deals with T1, SPRTN-EQ. The experiment in a line: EMSA. For orientation: In EMSA bound probe runs differently from free probe, usually more slowly.
Take GATGTCCTAGCAAGG (structured_DNA) [15-mer hairpin (oJS_106)]: the binding result was “binds”.

Take ACCAGTGCCTTGCTTGGACATCTTTGCCCA (ssDNA, T15 is SH-C9-dT crosslinked to protein G; 3' phosphate) [internal DPC ss (X15)]: the binding result is listed as “binds”.

For the molecule B1, the binding result is reported as “binds”.

On to B2, for which the binding result is given as “binds”.

On to B3, for which the binding result was “binds”.

For the molecule ACCAGTGCCTTGCTAGGACATCTTTGCCCT (ssDNA, T30 is SH-C9-dT crosslinked to protein G; 3' phosphate) [3' DPC ss (X30)], the binding result is “binds”.

Take TCCAGTGCCTTGCTAGGACATCTTTGCCCA (ssDNA, T1 is SH-C9-dT crosslinked to protein G; 3' phosphate) [5' DPC ss (X1)]: the binding result is reported as “binds”.

A further data set concerns the target T2, SPRTN ZBD. The experiment in a line: NMR.
Consider AAAAAAAAAAAAAAA (ssDNA) [poly(dA) 15-mer], for which the binding result is recorded as “binds”.

The next data set concerns the target T3, SPRTN ZBD-BR. The experiment in a line: NMR.
Turning to AAAAAAAAAAAAAAA (ssDNA) [poly(dA) 15-mer], the binding result is “binds”.
